From the nanobody polyreactivity screen of Harvey et al. (2022)

Assay: yeast display, Sf9 membrane polyspecificity reagent, FACS + sequencing; frameworks hold sequencing errors
Outline: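 A nanobody's polyreactivity label depends on the gate it was sorted from. Yeast display cells were stained with 10% biotinylated, detergent-solubilized Sf9 membrane reagent for 1 hour at 4 °C, enriched on streptavidin microbeads and sorted by FACS. The low and high (top ~1%) gates were set on anti-HA fluorescence for expression and streptavidin fluorescence for reagent binding.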

Sequence	polyreactivity (PSR sort gate)
QVQLVESGGGLVQAGGSLRLSCAASGITFLYYAMGWYRQAPGQERELVAAITSSGGRTYYADSVKGRFTISRDNAKNTVYLQMNSLKPEDTAVYYCAADSRTYNGGYYWGQGTQVTVSS	high polyreactivity
QVQLVESGGGLVQAGGSLRLSCAASGITFMFYAMGWSRQAPGKVRELVAAISSSGGTTYYADSVKGRFTISRDNAKNTVYLQMNSLTPEDTAVYYCAARRVLASWYDYNYWGQGTQVTVSS	high polyreactivity
QVQLVESGGGLVQAGGSLRLSCAASGITFNGNAMGWYRQAPGKERELVAAITRTGTDTSYADSVKGRFTISRDNAKNTVYLQMNSLKPEDTAVYYCAAPPYNGYRYGTTGYYWGQGTQVTVSS	low polyreactivity
QVQLVESGGGLVQAGGSLRLSCAASGITFNPNAMGWYRQAPGKERELVAVITYRGGSTYYADSVMGRFTISRDNAKNTVYLQMNSLKPADTAVYYCAAQYIGWHLYWYDYWGQGTQVTVSS	low polyreactivity
QVQLVESGGGLVQAGGSLRLSCAASGITFNYYAMGWYRQAPGKERELVAAISLSGGRTRYADSVKGRFTISRDNAKNTVYLQMNSLKPEDTAVYYCAAYSFRYVPWPDGMGYWGQGTQVTVSS	high polyreactivity
QVQLVESGGGLVQAGGSLRLSCAASGITFNYYAMGWYRQAPGKERELVAAISWSGDRTYYADTVKGRFTISRDNAKYTVYLQMNSLKPEDTAVYYCAAKSVGEGDYWGQGTQVTVSS	low polyreactivity
QVQLVESGGGLVQAGGSLRLSCAASGITFPDNAMGWSRQAPGKERELVAAITYSGGSTYYADSVKGRFTISRDNAKNTVYLQMNSLKPEDTAVYYCAADWYWSSSYSDWEDYWGQGTQVTVSS	low polyreactivity
QVQLVESGGGLVQAGGSLRLSCAASGITFPGNAMGWYRQAPGKERELVAVISFGDGGTYYADSVKGRFTISRDNAKNTVYLQMNSLKPEDTAVYYCATDYQSTSVWGGHFVINPYDYWGQGTQVTVSS	low polyreactivity
QVQLVESGGGLVQAGGSLRLSCAASGITFPGYAMGWYRQAPGKERELVAVIRKSGTSTGGNTYYADSVKGRFTISRDNAKNTVYLQMNSLKPEDTAVYYCAKKYVWTHNYWGQGTQVTVSS	low polyreactivity
QVQLVESGGGLVQAGGSLRLSCAASGITFPINTMGWYRQAPGKERELVAGIDWTGGSTYYADSVKGRFTISRDNAKIPVYLLMNSLKPEHTAVYYCAKTRRRLLTRYDYWGQGTQVTVSS	low polyreactivity
QVQLVESGGGLVQAGGSLRLSCAASGITFPLYAMGWYRQAPGKERELVAAISRRGGRTYADSVKGRFTISRDNAKNTVYLQMNSLKPEDTAVYYCAAKGYSYSRDFYSWGQGTQVTVSS	high polyreactivity
QVQLVESGGGLVQAGGSLRLSCAASGITFPRYVMGWYRQAPGKERELVAAISTSGGSTYYADSVKGRFTISRDNAKNTVYLQMNSLKPEDTAVYYCAALDIYSSTYPVEYDYWGQGTQVTVSS	high polyreactivity
QVQLVESGGGLVQAGGSLRLSCAASGITFPSYAMGWYRQAPGKERELVATISRGDSTYYADSVKGRFTISRDNAKNTVYLQMNSLKPEDTAVYYCATRAYRLDPLQHDYWGQGTQVTVSS	low polyreactivity
QVQLVESGGGLVQAGGSLRLSCAASGITFPVYAMGWYRQAPGKERELVATITSSGGRTYYADSVKGRFTISRDNAKNTVYLQMNSLKPEDTAVYYCAARPPYIRTLYYWGQGTQVTVSS	high polyreactivity
QVQLVESGGGLVQAGGSLRLSCAASGITFPYYAMGWYRQAPGKERELVAAINGNGGRTYYADSVKGRFTISRDNAKNNVYLDMNSLKPEDTAVYYCADRVVHVKGPRMDYWGQGTQVTLSS	high polyreactivity
QVQLVESGGGLVQAGGSLRLSCAASGITFPYYAMGWYRQAPGKERELVAAISAGGTRTYYADSVKGRFTISRDNAKNTVYLQMNSLKPEDTAVYYCAARVWPIVQNYYWGQGTQVTVSS	high polyreactivity
QVQLVESGGGLVQAGGSLRLSCAASGITFQGNAMGWYRQAPGKEREFVAAISWSGDSTYYADSVKGRFTISRDNAKNTVYLQMNSLKPEDTAVYYCAASRVIPSYPYYKYDYWGQGTQVTVSS	low polyreactivity
QVQLVESGGGLVQAGGSLRLSCAASGITFQKYVMGWYRQAPGKEREFVAAITARGGTTYYADSVKGRFTISRDNAKNTVYLQMNSLKPEDTAVYYCAADLRRFQSYYYWGQGTQVTVSS	high polyreactivity
QVQLVESGGGLVQAGGSLRLSCAASGITFQRYAMGWYRQAPGKERELVAAITRGGSTNYADSVKGRFTISRDNAKNTVYLQMNSLKPEDTAVYYCAAGARYGYGYWGQGTQVTVSS	high polyreactivity
QVQLVESGGGLVQAGGSLRLSCAASGITFQYYAMGWYRQAPGKERELGAAITSSGVSTYYADSVKGRFTISRDNAKNTVYLQMNSLKPEDTAVYYCNTVVRGWSSSAYVYWGQGTQVTVSS	low polyreactivity
QVQLVESGGGLVQAGGSLRLSCAASGITFRAYVMGWYRQAPGKERELVAAINRRGGSTYYADSVKGRFTISRDNEKNTVYLQMNSLKPEDTAVYYCGNGDFDYWGQGTQVTVSS	high polyreactivity
QVQLVESGGGLVQAGGSLRLSCAASGITFRFYAMGWYRPAPGKEREFVAAISSRGGRTYYADSVKGRFTISRDNATNTVYLQMNSLKPEDTAVYYCAADFYYRTVATVTSVARYDYWGQGTQVTVSS	high polyreactivity

Sequence	polyreactivity (PSR sort gate)
QVQLVESGGGLVQAGGSLRLSCAASGITFRGNAMGWYRQAPGKERELVAAISRRGGNTNYADSVKGRFTISRDNAKNTVYLQMNSLKPEDTAVYYCAADITTYRRGRYEYEYWGQGTQVTVSS	high polyreactivity
QVQLVESGGGLVQAGGSLRLSCAASGITFRGYVMGWYRQAPGKERELVADISRRGGSTYADSVKGRFTISRDNAKNTVYLQMNSLKPEDTAVYYCNAGWRPHNLNQVGYSSYGYYYWGQGTQVTVSS	high polyreactivity
QVQLVESGGGLVQAGGSLRLSCAASGITFRHYAMGWYRQAPGKEREFVAAITASGSSTYYADSVKGRFTISRDTAKNTVYLQMNSLKPEDTAVYYCAAAGYKYNSRGDYWGPGTQVTVSS	high polyreactivity
QVQLVESGGGLVQAGGSLRLSCAASGITFRKYAMGWYRPAPGKERELVAAISSGGSRTYYADSVKGRFTISRDNAKNTVYLQMNSLKPEDTAVYYCAARKADTVFKFEYWGQGTQVTVSS	high polyreactivity
QVQLVESGGGLVQAGGSLRLSCAASGITFRKYAMGWYRQAPGKERELVAGIRYSGSSTYYADSVKGRFTISRDNAKNTVYLQMNSLTPEDTAVYYCAVYGTTRYATTYDYWGQGTQVTVSS	high polyreactivity
QVQLVESGGGLVQAGGSLRLSCAASGITFRKYAMGWYRQAPGTERELVAAISAGGGRTFYADSVKGRFTISRDNAKNTVYLQMNSLKPEDTAVYYCNADLGIGYDYWGQGTQVTVSS	high polyreactivity
QVQLVESGGGLVQAGGSLRLSCAASGITFRLYAMGWYRPAPGKERELVAAISKRGGSTYYADSVKGRFTISRDNAKNTVYLQMNSLKPEDTAVYYCAADSGWEHRYDYWGQGTQVTVSS	high polyreactivity
QVQLVESGGGLVQAGGSLRLSCAASGITFRLYAMGWYRQAPGKEREFVAAISRRGGSTYYADSVKGRFTISRDNAKNTVYLQMNSLKPEDTAVYYCARYGLVYALGYWGQGTQVTVSS	high polyreactivity
QVQLVESGGGLVQAGGSLRLSCAASGITFRNYAMGWYRQAPGKEREFVAAIRWGGGSTYYEDSGKGRFTISLDNAKNTVYLQMNSLKPEDTAVYYCATRGYSRNNPYSRPYDYWGQGTQVTVSS	high polyreactivity
QVQLVESGGGLVQAGGSLRLSCAASGITFRRYALGWYRQAPGKERELVAAITSGGGTYYADSVKGRFTISRDNAKNTVYLQMNSLKPEDTAVYYCNTYYHWLTMDYWGQGTQVTVSS	high polyreactivity
QVQLVESGGGLVQAGGSLRLSCAASGITFRRYAMGWYRPAPGKERELVAVISVSGGRTHYADSVKGRFTISRDNAKNTVYLQMNSLKPEDTAVYYCAADFLRYPLGYWGQGTQVTVSS	high polyreactivity
QVQLVESGGGLVQAGGSLRLSCAASGITFRRYTMGWYRQAPGKERELVAAISRTGGSTYYADSVKGRFTISRDNAKNTVYLQMNSLKPEDTAVYYCAARPHRYTSRHGYWGQGTQVTVSS	high polyreactivity
QVQLVESGGGLVQAGGSLRLSCAASGITFRRYTMGWYRQAPGKERELVAAITSRGSSTYYADSVKGRFTISRDNAKNTVYLQMNSLKPEDTAVYYCAAQYRQRRHDYWGQGTQVTVSS	high polyreactivity
QVQLVESGGGLVQAGGSLRLSCAASGITFRRYTMGWYRQAPGKERELVATISLSDGNTYYADSVKGRFTISRDNAKNTVYLQMNSLKPEDTAVYYCNALHTWHQTYYYWGQGTQVTVSS	low polyreactivity
QVQLVESGGGLVQAGGSLRLSCAASGITFRVYVMGWYRQAPGKERELVAAITRSGGRTYYADSVKGRFTISRDNAKNTVYLQMNSLKPEDTAVYYCAAEYDVYGIYEYDYWGQGTQVTVSS	high polyreactivity
QVQLVESGGGLVQAGGSLRLSCAASGITFRWYAMGWSRQAPGKERELVAAIDGGGSTYYADSVKGRFTISRDNAKNTVYLQMNSMKPEDTAVYYCAADYGRRYHTPYGWDYYYWGQGTQVTVSS	high polyreactivity
QVQLVESGGGLVQAGGSLRLSCAASGITFRWYAMGWYRQAPGKEREFVAAIDASGSTYYADSVKGRFTISRDNAKNTVYLQMNSLKPEDTAVYYCAADWDEYFGGDYWGQGTQVTVSS	low polyreactivity
QVQLVESGGGLVQAGGSLRLSCAASGITFRWYAMGWYRQAPGKERELVALIDGRGASTYADSVKGRFTISRDNAKNTVYLQMNSLKPEDTAVYYCAVAQVRVTYLWVRKFYYWGQGTQVTVSS	high polyreactivity
QVQLVESGGGLVQAGGSLRLSCAASGITFRYNAMGWYRQAPGKERELVAAISYSGGSTYYADSVKGRFTISRDNAKNTVYLQMNSLKPEDTAVYYCAARIYSYPRGQYDYWGQGTQVTVSS	low polyreactivity
QVQLVESGGGLVQAGGSLRLSCAASGITFRYYAKGWYRQAPGKERELVAAISRAGSTNYADSVKGRFTISRDNAKNTVYLQMNSLKPVDTAVYSCNARRRSTNAVSYRYITPYDYWGQGTQVTVSS	high polyreactivity
QVQLVESGGGLVQAGGSLRLSCAASGITFRYYAMGWYRQAPGKERELVADINRGSDTNYADSVKGRFTISRDNAKNTVYLQMNSLKPEDTAVYYCNAYWQGYGYDYWGQGTQVTVSS	low polyreactivity
